{
  "source": "the DeepSol protein solubility set",
  "data": [
    {"experiment": "soluble on expression in E. coli; label from the status in PepcDB or PDB records", "values": [
      {"sequence": "MSLSRQIRYYGTGTQKAYDELKQVLPEARILRMDVDTTKRKGAHEKILTKFGRHEADILLGTQMIAKGLDFPNVTLVGVLNADTSLNLPDFRSSERTFQLLTQVAGRAGRANKPGEVLIQTYNPNHYAIQLAREQDYEAFYRYEMRIRKALSYPPYYFTVGLTLSHKDEQEVIKKSYEIVTLIKEGLTDKIKILGPTPKPVARTHNLYHYQIIIKYRFEDQLEIVLNHILDLTQAKENKKLRLIIDHEPQSEGHHHHHH", "soluble on expression in E. coli": "not soluble"},
      {"sequence": "MSLTSLVSAVGSHHVTTDPDVLAGRSVDHTGRYRGRASALVRPGSAEEVAEVLRVCRDAGAYVTVQGGRTSLVAGTVPEHDDVLLSTERLCVVSDVDTVERRIEIGAGVTLAAVQHAASTAGLVFGVDLSARDTATVGGMASTNAGGLRTVRYGNMGEQVVGLDVALPDGTVLRRHSRVRRDNTGYDLPALFVGAEGTLGVITALDLRLHPTPSHRVTAVCGFAELAALVDAGRMFRDVEGIAALELIDGRAAALTREHLGVRPPVEADWLLLVELAADHDQTDRLADLLGGARMCGEPAVGVDAAAQQRLWRTRESLAEVLGVYGPPLKFDVSLPLSAISGFARDAVALVHRHVPDSPEALPLLFGHIGEGNLHLNVLRCPPDREPALYAKMMGLIAECGGNVSSEHGVGSRKRAYLGMSRQANDVAAMRRVKAALDPTGYLNAAVLFDEGHHHHHH", "soluble on expression in E. coli": "not soluble"},
      {"sequence": "MGSDKIHHHHHHMNSGDIPATATFVNGTVNEKAATPRIPHQRPEGCPVSITRDSRAVALLWSFMNNDSSSRIAARLREWIATAAPGARLPSTRSLVAGYQASPVTVQKALQSLTAQGLIESRPGVGTFVRAVRTARPSDYGWQTAALRSPLAPLPSASTTMRDVANNAIAFHSGYPDRELLPERLVRAALTRAARGDAALSRPPAAGLPELQSWFARELGASTPAGTTPPNPSDVVVLPGSQSGLSSIFSALAGRGQPLLMESPTYWGAILAAAQAGVRVVPVPSGPDGPDPAELARAFDETGARLFYAQPNYANPTGAQWAPGRGEEVLEVVRGKGAFLVEDDWAHDFGITTSPVPVASRDDSGHVVYLRSLTKSVSPAIRIAAVIARGPARERILADRAAESMYVSGLLQAAALDVVTQPGWQTHLRSLRHQLQARRDLLVTSIREHAPQAHIEQVPKGGLNLWARLPDATDLDRLTRDCESRGVIIAAGREWFPAEPAGAFIRLNYSGSNPGAFPEGARIIGESIERNSS", "soluble on expression in E. coli": "not soluble"},
      {"sequence": "ENQYVMKLANSLFVQNGFHVNEEFLQMLKMYFNAEVNHVDFSQNVAVANSINKWVENYTNSLLKDLVSPEDFDGVTNLALINAVYFKGNWKSQFRPENTRTFSFTKDDESEVQIPMMYQQGEFYYGEFSDGSNEAGGIYQVLEIPYEGDEISMMLALSRQEVPLATLEPLLKAQLIEEWANSVKKQKVEVYLPRFTVEQEIDLKDILKALGVTEIFIKDANLTAMSDKKELFLSKAVHKSCIEVNEEGSEAAAASGMIAIS", "soluble on expression in E. coli": "soluble"},
      {"sequence": "MGSDKIHHHHHHMNDYYDLLDRVKILIKLGRYKEALRIIDEVIEDSPDVSFLYYKISILFTCRRFEEAKSTLNTAISIFPGSTVFRIWKMVLALETKDVLSMAQINFNDNSVASSQLNAPFQSMDFNDNYAYTFSKSVRDLIMKLGKSAIYCDLQQLKEKILTERISTETINGLYTDIMDYRNRDIVELSSYGRAFYFYSIGRIGDSFIEISSLPDHEVFKAFILGKYSDFLKQTYEIADPYTRAVRFHILRLRELSLKEIETASYIGMDELVMSKRIIEFNGSSLSTQVVVNKVPESHL", "soluble on expression in E. coli": "not soluble"},
      {"sequence": "MGSDKIHHHHHHMSVGEAMDTEVRAAAQAVCLAFNENPEAVEPRVQAAIAAAAARINRYPFDAEPRVMRKLAEHFSCPEDNLMLVRGIDECFDRISAEFSSMRFVTAWPGFDGYRARIAVSGLRHFEIGLTDDLLLDPNDLAQVSRDDCVVLANPSNPTGQALSAGELDQLRQRAGKLLIDETYVDYSSFRARGLAYGENELVFRSFSKSYGLAGLRLGALFGPSELIAAMKRKQWFCNVGTLDLHALEAALDNDRAREAHIAKTLAQRRRVADALRGLGYRVASSEANFVLVENAAGERTLRFLRERGIQVKDAGQFGLHHHIRISIGREEDNDRLLAALAEYSDHS", "soluble on expression in E. coli": "not soluble"},
      {"sequence": "MNDPLDSLSNDEFEIIETFDPETEDREDQWSIQQSIRIEPISIQMPNTLQSQRAPSPVGSKAPESLKDEDPDRTPEASIVETPLLTETLKEDRTPMSTPLASLVNSSQSPEFTLQNMSIVSESECSNNSSLVNVADVESTEIALRTSLLLVSELKSQLQAAKMSESTLLKSNSNHEIEENKKLSEKMEVMKNEFELKMQESAASVEKVIQEKDSAIEQLKVQLAQSQQVAELWKQGAEKNSNAQYSDSKTTIDRLLEENSKLRNLVDEEVARRLEESERRKLAEDQLKHARGGSVFDPPASFVASQLAERTTYSLNLEHELITLRKELEETKEALKKSVEESSNKDEIVSALHEDQQESTRMLASNEQVINSLKQKCRQLGVLEDFSS", "soluble on expression in E. coli": "soluble"},
      {"sequence": "GPGSMIGLYRVVQFVHLTFFSTGHDLKRRYSKAGDWAVVTGGTEGIGRAVALDLANRGFNVCVISRTQSKLDEVVAEIEKCGTRGHSIAFDFATAGEAEYKMLFAKLDSLAVGLLVNNVGVNYTYANYFDEADVVDDLRIIKVNCEATTRMTKFFAPRMKARRAGGIVLLGSFSAVTPAPLLATYAGTKAFNVSFGDALFYELKKFGVDVLVVTPNLVVSRMTQGASTRAPKETFLTVGAAAMARQTLNQLGVVNRTAGHRNHIIIEAIARLLPESLRGEKMLAMHESIKKRAERKAKQ", "soluble on expression in E. coli": "not soluble"},
      {"sequence": "YPHHLGTSPRHPLNSGTEMAGGAWGRLACYLEFLKKEELKEFQLLLANKAHSRSSSGETPAQPEKTSGMEVASYLVAQYGEQRAWDLALHTWEQMGLRSLCAQAQEGAGHSPSFPYSPSEPHLGSPSQPTSTAVLMPWIHELPAGCTQGSERRVLRQLPDTSGRRWREISASLLYQALPSSPDHESPSQESPNAPTSTAVLGSWGSPPQPSLAPREQEAPGTQWPLDETSGIYYTEIREREREKSEKGRPPWAAVVGTPPQAHTSLQPHHHPWEPSVRESLCSTWPWKNEDFNQKFTQLLLLQRPHPRSQDPLVKRSWPDYVEENRGHLIEIRDLFGPGLDTQEPRIVILQGAAGIGKSTLARQVKEAWGRGQLYGDRFQHVFYFSCRELAQSKVVSLAELIGKDGTATPAPIRQILSRPERLLFILDGVDEPGWVLQEPSSELCLHWSQPQPADALLGSLLGKTILPEASFLITARTTALQNLIPSLEQARWVEVLGFSESSRKEYFYRYFTDERQAIRAFRLVKSNKELWALCLVPWVSWLACTCLMQQMKRKEKLTLTSKTTTTLCLHYLAQALQAQPLGPQLRDLCSLAAEGIWQKKTLFSPDDLRKHGLDGAIISTFLKMGILQEHPIPLSYSFIHLCFQEFFAAMSYVLEDEKGRGKHSNCIIDLEKTLEAYGIHGLFGASTTRFLLGLLSDEGEREMENIFHCRLSQGRNLMQWVPSLQLLLQPHSLESLHCLYETRNKTFLTQVMAHFEEMGMCVETDMELLVCTFCIKFSRHVKKLQLIEGRQHRSTWSPTMVVLFRWVPVTDAYWQILFSVLKVTRNLKELDLSGNSLSHSAVKSLCKTLRRPRCLLETLRLAGCGLTAEDCKDLAFGLRANQTLTELDLSFNVLTDAGAKHLCQRLRQPSCKLQRLQLVSCGLTSDCCQDLASVLSASPSLKELDLQQNNLDDVGVRLLCEGLRHPACKLIRLGLDQTTLSDEMRQELRALEQEKPQLLIFSRRKPSVMTPTEGLDTGEMSNSTSSLKRQRLGSERAASHVAQANLKLLDVSKIFPIAEIAEESSPEVVPVELLCVPSPASQGDLHTKPLGTDDDFWGPTGPVATEVVDKEKNLYRVHFPVAGSYRWPNTGLCFVMREAVTVEIEFCVWDQFLGEINPQHSWMVAGPLLDIKAEPGAVEAVHLPHFVALQGGHVDTSLFQMAHFKEEGMLLEKPARVELHHIVLENPSFSPLGVLLKMIHNALRFIPVTSVVLLYHRVHPEEVTFHLYLIPSDCSIRKELELCYRSPGEDQLFSEFYVGHLGSGIRLQVKDKKDETLVWEALVKPGDLMPATTLIPPARIAVPSPLDAPQLLHFVDQYREQLIARVTSVEVVLDKLHGQVLSQEQYERVLAENTRPSQMRKLFSLSQSWDRKCKDGLYQALKETHPHLIMELWEKGSKKGLLPLSS", "soluble on expression in E. coli": "soluble"},
      {"sequence": "GAFGWEQDRGAPFSGRSPRILTRMTDAPRPTAGADAPARPPAAPLVAPNFITEIIERDLEAGKYPRVVTRFPPDPSGYAHLGHVFASLLDFNTARQYGGQFNLRMDDTNPELARQEYVDSIADDLKWLGLDWGEHFYYASDYFDRYYAYAEQLIRQGDAYVESVSPEELSRLRGNATTPGTPSPYRDRSVEENLDLLRRMKAGEFADGEHVLRAKIDLTAPNMKLRDPVLYRIVNKPHFRTSDEWHIYPAYDFEHPLQDAIEGVTHSMCSLEFVDNRAIYDWLMEKLNFDPRPHQYEFGRRGLEYTITSKRKLRELVQAGRVSGWDDPRMPTLRAQRRLGVTPEAVRAFAAQIGVSRTNRTVDIAVYENAVRDDLNHRAPRVMAVLDPVKVTLTNLDGEKTLSLPYWPHDVVRDSPDGLVGMPGGGRVAPEEAVRDVPLTRELYIERDDFSPAPPKGFKRLTPGGTVRLRGAGIIRADDFGTDEAGQVTHIRATLLGEDAKAAGVIHWVSAERALPAEFRLYDRLFRVPHPEGENADVEDDSAGPAEHEAEPGAGQETAPVSQGFMRYLTPDSLRVLRGYVEPSVAGDPADTRYQFERQGYFWRDPVELERVDSREDALVFGRIITLKDTWGKQGGGTQQKAEGKKRPSTKGRGPDEVRGEGSSSPAKAHAPKAQPLTPEQDAEFTRLLGLGASEGDARTIARDPALLAFVGGAAPGDTFAQVASWTVNELVAGLRAGEVKVRAADLAPLAEGVASGQLSARIAREALARAAASGDAPLTIIEREGLNAGLSAEALQQVVAQVIAANPDKAEAYRGGKTALLGFFTGQVMRATAGKADPQALAAALKDALA", "soluble on expression in E. coli": "soluble"},
      {"sequence": "MAEVAPNSTLYINNLNEKIKIDELRKSLVAVFKQFGEIVSVMCFRTLKMRGQAHVIFKELPAASAAREALNGFPFYEKPMRIQFAREDSDVVAQEKGTYIKREPKYLSEKILKKPKSRKKENGGDGPAPPNKILFCTNLPDSATAEMLEIMFNQFAGLKDIRMVPNRPGIAFVEFDTDSLAIPARTTLNNFKISAEHTMRVDYAKK", "soluble on expression in E. coli": "soluble"},
      {"sequence": "MGHHHHHHSHYGSLNPKAITISQYGEPFVVGTSRVVEIIRKLRERFGEVRIDIQTNGTLLEPEILGSEADIVMISLDAGSRESYAEITGKDFFERVVKNIEKMSEHTYTVVRTVFMPGINDEELERIAEIASQADELFLQPLSIYRENTELLKRLDVERAESLGDYLQTAYRLSEIASVRIPGCLLLNMRWFLREFEIGEL", "soluble on expression in E. coli": "not soluble"},
      {"sequence": "MGSDKIHHHHHHMSMILTSKFVDRERELNFLREHYHSGKAELIVIYGRRRIGKTYLLRKFLEETNGIYLLAEENETNLEDFSLRLADYFKDPFLKENPIRTWGAFFTYLAGKSTKRLVVVIDGVQYLVRAEKGFLSTLQKYWDLYLSSTKIMLILCGSLVSFMEGILSGKSPIYGRRTGTWKVEEMSFFDVLKFHPIDIETAIKIYGVFGGVPQYWVDYDPGKDFWENIKDLVLSKGAKYYDEPKYLLKEELRDVSRYFSILRAISLGYSRFGQIADAARIETKSLGKYLNVLEEMGYIREEKPIVGRGKTVYKINEHFFNFWFRFVFPRRSEIEMGFDVVEEIKKEFNNYLGPVFEEISRQFLIEMNKRKKLPFRFTKIGRWWYKGEEIDLVALNEDEKKALFIEVKWKNLERKEAYKILKDLKRKAELTGLHDWNKAYGIIAKSIMEKEELREEGFLAWDLRDFELIN", "soluble on expression in E. coli": "not soluble"},
      {"sequence": "SSLDDKPQFPGASAEFIDKLEFIQPNVISGIPIYRVMDRQGQIINPSEDPHLPKEKVLKLYKSMTLLNTMDRILYESQRQGRISFYMTNYGEEGTHVGSAAALDNTDLVFGQYREAGVLMYRDYPLELFMAQCYGNISDLGKGRQMPVHYGCKERHFVTISSPLATQIPQAVGAAYAAKRANANRVVICYFGEGAASEGDAHAGFNFAATLECPIIFFCRNNGYAISTPTSEQYRGDGIAARGPGYGIMSIRVDGNDVFAVYNATKEARRRAVAENQPFLIEAMTYAIGHASTSDDSSAYRSVDEVNYWDKQDHPISRLRHYLLSQGWWDEEQEKAWRKQSRRKVMEAFEQAERKPKPNPNLLFSDVYQEMPAQLRKQQESLARHLQTYGEHYPLDHFDK", "soluble on expression in E. coli": "soluble"}
    ]}
  ]
}
